Changes are numbered by the printed parent chain.
Assays:
[1] = biological target: T1, cynomolgus monkey (nonhuman primate) IL-13 (Macaca fascicularis); test: KinExA
T1 chain: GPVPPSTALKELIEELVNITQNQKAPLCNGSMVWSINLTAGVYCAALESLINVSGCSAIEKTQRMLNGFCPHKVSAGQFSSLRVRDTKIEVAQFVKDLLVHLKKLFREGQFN

[2] = biological target: human interleukin (IL)-13 (Homo sapiens, UniProt P35225); test: KinExA
[3] = biological target: T1, cynomolgus monkey (nonhuman primate) …; test: flow cytometry on cells

Sequence of human interleukin (IL)-13 (P35225 25-146): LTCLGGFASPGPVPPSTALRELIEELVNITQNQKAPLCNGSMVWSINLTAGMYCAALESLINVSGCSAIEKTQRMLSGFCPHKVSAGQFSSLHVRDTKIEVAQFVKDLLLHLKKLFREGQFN

B1: antibody 731 (antibody, V domains shown)
VH: EVQLLESGGGLVQPGGSLRLSCAASGFTFSSYAMSWVRQAPGKGLEWVSAFSGSGGSTYYADSVKGRFTISRDNSKNTLYLQMNSLRAEDTAVYYCVQDGLGPYFYNYGMDVWGQGTTVTVSS
VL: SYELTQPPSVSVSPGQTASITCSGDKLGDKYTCWFQQKPGQSPVLVIYHDSKRPSGIPERFSGSNSGDTATLTISGTQAMDEADYYCQAWDSSTYVFGTGTKVTVL
[1]
  Kd: 3550 pM
[2]
  Kd: 1.9 pM

B2: MMAb3 (LC1/HC1) (antibody, V domains shown)
VH: B1 VH with S54W, G55D, G56V
VL: B1 VL with T32S, C33F
[1]
  Kd: 5.1 pM
[2]
  Kd: 0.034 pM

B3: MMAb2 (LC2/HC2) (antibody, V domains shown)
VH: B1 VH with M34G
VL: B1 VL with T32A, C33F
[1]
  Kd: 12.4 pM
[2]
  Kd: 0.142 pM

B4: HC1 (heavy-chain variant of Ab731 with the parental light chain), membrane-tethered on the cell surface (antibody, V domains shown)
VH: B1 VH with S54W, G55D, G56V
VL: B1 VL
[3]
  binding result: binds

B5: HC2 (heavy-chain variant of Ab731 with the parental light chain), membrane-tethered on the cell surface (antibody, V domains shown)
VH: B1 VH with M34G
VL: B1 VL
[3]
  binding result: binds

B6: MMAb1 (LC1/HC2) (antibody, V domains shown)
VH: B1 VH with M34G
VL: B1 VL with T32S, C33F
[1]
  Kd: 18.7 pM
[2]
  Kd: 0.295 pM
